We go through two substances from paper PMC2959089, “The intriguing Cyclophilin A-HIV-1 Vpr interaction: prolyl cis/trans isomerisation catalysis and specific binding” (BMC Structural Biology, 2010).

What is called Kd is the equilibrium constant for the complex coming apart.

The target in the experiment is recombinant human Cyclophilin A (CypA) (human) (UniProt P62937). The experiment is described as follows: SPR.
Sequence of recombinant human Cyclophilin A (CypA) (human) (P62937 whole entry): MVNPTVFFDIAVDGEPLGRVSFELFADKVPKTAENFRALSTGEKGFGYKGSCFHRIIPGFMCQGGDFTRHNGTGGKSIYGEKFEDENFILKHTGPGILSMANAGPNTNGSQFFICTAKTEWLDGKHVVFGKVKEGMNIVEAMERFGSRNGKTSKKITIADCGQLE

For the substance synthetic HIV-1 Vpr peptide sVpr^1-40, the dissociation constant Kd came out at 0.284 mM; the ka1 (two-state model, association) stood at 752 M⁻¹ s⁻¹; the ka2 (two-state model, forward rate) came to 0.0073 s⁻¹; the kd1 (two-state model, dissociation) came to 0.37 s⁻¹. Besides, the kd2 (two-state model, backward rate) was 0.0099 s⁻¹.

For “synthetic mutant HIV-1 Vpr peptide sVpr^1-40 P5,10,14N”, the Kd stood at 6.15 mM; the ka1 (two-state model, association) worked out at 46 M⁻¹ s⁻¹; the ka2 (two-state model, forward rate) came to 0.0047 s⁻¹; the kd1 (two-state model, dissociation) worked out at 0.56 s⁻¹. The kd2 (two-state model, backward rate) was 0.0048 s⁻¹.
